Test results from patent US20250145720A1.
pKd: −log10 of the molar value.

Assays:
[1] = molecular target: human complement component C1q (human) (UniProt P02745); experiment: cell-based or functional assay
[2] = molecular target: human complement component C1q (human) (UniProt P02745); experiment: FACS, C1q on antibody-opsonized Daudi cells, Exp. 5
[3] = molecular target: human complement component C1q (human) (UniProt P02745); experiment: FACS, C1q on antibody-opsonized Daudi cells, Exp. 11
[4] = molecular target: human complement component C1q (human) (UniProt P02745); experiment: FACS, C1q on antibody-opsonized Daudi cells, average
[5] = molecular target: human complement component C1q (human) (UniProt P02745); experiment: FACS, C1q on antibody-opsonized Daudi cells, ranking table
[6] = molecular target: human complement component C1q (human) (UniProt P02745); experiment: FACS, C1q on antibody-opsonized Daudi cells, ranking table; no reliable fit
[7] = molecular target: human complement component C1q (human) (UniProt P02745); experiment: FACS, C1q on antibody-opsonized Daudi cells, Exp. 6; no reliable fit, too weak binding
[8] = molecular target: human complement component C1q (human) (UniProt P02745); experiment: FACS, C1q on antibody-opsonized Daudi cells, Exp. 11; no reliable fit, too weak binding
[9] = molecular target: human complement component C1q (human) (UniProt P02745); experiment: FACS, C1q on antibody-opsonized Daudi cells, average; no reliable fit, too weak binding
[10] = molecular target: human complement component C1q (human) (UniProt P02745); experiment: FACS, C1q on antibody-opsonized Daudi cells, Exp. 9
[11] = molecular target: human complement component C1q (human) (UniProt P02745); experiment: FACS, C1q on antibody-opsonized Daudi cells, Exp. 7
[12] = molecular target: human complement component C1q (human) (UniProt P02745); experiment: FACS, C1q on antibody-opsonized Daudi cells, Exp. 8
[13] = molecular target: human complement component C1q (human) (UniProt P02745); experiment: FACS, C1q on antibody-opsonized Daudi cells, Exp. 10
[14] = molecular target: human complement component C1q (human) (UniProt P02745); experiment: FACS, C1q on antibody-opsonized Daudi cells, average (row shifted one column to the left)
[15] = molecular target: human complement component C1q (human) (UniProt P02745); experiment: FACS, C1q on antibody-opsonized Daudi cells, Exp. 5; no reliable fit, too weak binding

Chain of human complement component C1q (human) (P02745 23-245 limits assumed, chain 1 of 3): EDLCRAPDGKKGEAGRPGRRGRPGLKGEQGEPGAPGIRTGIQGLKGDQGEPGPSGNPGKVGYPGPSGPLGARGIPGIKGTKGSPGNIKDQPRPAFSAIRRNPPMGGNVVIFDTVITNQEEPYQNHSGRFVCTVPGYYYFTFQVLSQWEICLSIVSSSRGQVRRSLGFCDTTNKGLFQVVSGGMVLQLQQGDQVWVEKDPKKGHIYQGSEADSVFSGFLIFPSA
Chain of human complement component C1q (human) (P02746 28-253 limits assumed, chain 2 of 3, further chain): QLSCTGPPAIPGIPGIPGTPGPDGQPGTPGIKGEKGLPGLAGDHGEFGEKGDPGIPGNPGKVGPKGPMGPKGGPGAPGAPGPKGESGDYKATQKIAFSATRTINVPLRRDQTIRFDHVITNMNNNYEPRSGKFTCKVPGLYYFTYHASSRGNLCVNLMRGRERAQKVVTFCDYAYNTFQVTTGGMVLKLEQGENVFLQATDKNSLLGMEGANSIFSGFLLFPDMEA
Chain of human complement component C1q (human) (P02747 29-245 limits assumed, chain 3 of 3, further chain): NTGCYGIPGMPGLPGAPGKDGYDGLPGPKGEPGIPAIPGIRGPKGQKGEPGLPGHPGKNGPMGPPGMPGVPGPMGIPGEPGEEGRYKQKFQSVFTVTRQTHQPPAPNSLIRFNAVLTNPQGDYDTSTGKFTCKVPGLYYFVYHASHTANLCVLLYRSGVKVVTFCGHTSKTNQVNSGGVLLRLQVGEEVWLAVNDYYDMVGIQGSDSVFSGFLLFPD

| CH50 (C1q concentration giving 50% lysis), CDC on Raji cells in C1q-depleted serum [1] | EC50 of CDC on Daudi cells, 20% normal human serum [1] | EC50 of CDC on Raji cells, 20% normal human serum [1] | pKd [2] | pKd [3] | pKd [4] | pKd [5] | pKd [6] | pKd [7] | pKd [8] | pKd [9] | pKd [10] | pKd [11] | pKd [12] | pKd [13] | pKd [14] | pKd [15] | Substance |
| --- | --- | --- | --- | --- | --- | --- | --- | --- | --- | --- | --- | --- | --- | --- | --- | --- | --- |
| > 30 µg/mL | 3.03 mg/L | 19.3 mg/L | 7.49 | 6.67 | 6.91 | 6.91 |  |  |  |  |  |  |  |  |  |  | IgG1-7D8-H310K (antibody) |
| > 30 µg/mL | 4.73 mg/L | > 30 mg/L |  |  |  |  | 5.71 | 5.91 | 5.57 | 5.71 |  |  |  |  |  |  | IgG1-7D8-H433D (antibody) |
| 0.16 µg/mL | 0.33 mg/L | 1.42 mg/L |  |  |  | 8.52 |  |  |  |  | 8.24 | 9.14 | 8.75 | 8.80 | 8.52 |  | IgG1-7D8-H433R (antibody) |
| > 30 µg/mL | 2.61 mg/L | 19.5 mg/L | 6.12 | 6.18 | 6.14 | 6.14 |  |  |  |  |  |  |  |  |  |  | IgG1-7D8-Q438D (antibody) |
|  | 1.9 mg/L | 11.9 mg/L |  |  |  |  | 5.89 |  | 6.89 | 5.89 |  |  |  |  |  | 5.62 | IgG1-7D8-Y436C (antibody) |
